Measured values from PMC8241838 (2021).
Each block holds one binder with its values, some of them ahead of it.

Experiments:
Test in all cases: FACS
[1] = molecular target: α6β1 integrin on Expi293F cells, α6 E221A (human, UniProt P05556 21-798)
[2] = molecular target: α6β1 integrin on Expi293F cells, α6 E219A (human, UniProt P05556 21-798)
[3] = molecular target: α6β1 integrin on Expi293F cells, α6 D153A (human, UniProt P05556 21-798)
[4] = molecular target: α6β1 integrin on Expi293F cells, α6 R157A (human, UniProt P05556 21-798)
[5] = molecular target: α6β1 integrin on Expi293F cells, α6 D205A (human, UniProt P05556 21-798)
[6] = molecular target: human α6β1 integrin transiently expressed on Expi293F cells, wild type (human, UniProt P05556 21-798)
[7] = molecular target: α6β1 integrin on Expi293F cells, α6 X1-ΔC (human, UniProt P05556 21-798)
Sequence of α6β1 integrin on Expi293F cells, α6 X1-ΔC (P05556 whole entry, looked up, stated change not applied): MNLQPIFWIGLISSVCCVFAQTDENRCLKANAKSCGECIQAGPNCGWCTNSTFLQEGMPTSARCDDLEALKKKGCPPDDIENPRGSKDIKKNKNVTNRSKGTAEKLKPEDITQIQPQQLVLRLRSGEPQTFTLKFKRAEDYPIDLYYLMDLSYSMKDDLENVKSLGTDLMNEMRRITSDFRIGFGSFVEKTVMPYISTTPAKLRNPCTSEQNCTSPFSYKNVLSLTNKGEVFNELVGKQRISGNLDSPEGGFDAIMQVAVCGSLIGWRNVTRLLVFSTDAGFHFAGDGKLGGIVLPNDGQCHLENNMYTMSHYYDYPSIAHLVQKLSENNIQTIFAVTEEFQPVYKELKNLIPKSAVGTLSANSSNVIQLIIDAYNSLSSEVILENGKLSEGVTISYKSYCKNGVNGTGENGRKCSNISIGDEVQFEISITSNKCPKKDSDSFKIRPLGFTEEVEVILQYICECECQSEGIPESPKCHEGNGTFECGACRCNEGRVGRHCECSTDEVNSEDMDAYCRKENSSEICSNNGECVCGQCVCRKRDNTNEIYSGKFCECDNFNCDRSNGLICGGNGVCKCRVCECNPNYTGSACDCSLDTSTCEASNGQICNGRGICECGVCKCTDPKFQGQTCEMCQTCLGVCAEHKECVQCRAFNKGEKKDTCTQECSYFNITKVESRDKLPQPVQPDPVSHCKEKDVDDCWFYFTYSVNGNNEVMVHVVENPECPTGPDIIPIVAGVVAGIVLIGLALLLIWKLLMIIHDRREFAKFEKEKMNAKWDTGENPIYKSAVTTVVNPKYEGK

Sequence of human α6β1 integrin transiently expressed on Expi293F cells, wild type (chain, as listed by the source, chain 1 of 2): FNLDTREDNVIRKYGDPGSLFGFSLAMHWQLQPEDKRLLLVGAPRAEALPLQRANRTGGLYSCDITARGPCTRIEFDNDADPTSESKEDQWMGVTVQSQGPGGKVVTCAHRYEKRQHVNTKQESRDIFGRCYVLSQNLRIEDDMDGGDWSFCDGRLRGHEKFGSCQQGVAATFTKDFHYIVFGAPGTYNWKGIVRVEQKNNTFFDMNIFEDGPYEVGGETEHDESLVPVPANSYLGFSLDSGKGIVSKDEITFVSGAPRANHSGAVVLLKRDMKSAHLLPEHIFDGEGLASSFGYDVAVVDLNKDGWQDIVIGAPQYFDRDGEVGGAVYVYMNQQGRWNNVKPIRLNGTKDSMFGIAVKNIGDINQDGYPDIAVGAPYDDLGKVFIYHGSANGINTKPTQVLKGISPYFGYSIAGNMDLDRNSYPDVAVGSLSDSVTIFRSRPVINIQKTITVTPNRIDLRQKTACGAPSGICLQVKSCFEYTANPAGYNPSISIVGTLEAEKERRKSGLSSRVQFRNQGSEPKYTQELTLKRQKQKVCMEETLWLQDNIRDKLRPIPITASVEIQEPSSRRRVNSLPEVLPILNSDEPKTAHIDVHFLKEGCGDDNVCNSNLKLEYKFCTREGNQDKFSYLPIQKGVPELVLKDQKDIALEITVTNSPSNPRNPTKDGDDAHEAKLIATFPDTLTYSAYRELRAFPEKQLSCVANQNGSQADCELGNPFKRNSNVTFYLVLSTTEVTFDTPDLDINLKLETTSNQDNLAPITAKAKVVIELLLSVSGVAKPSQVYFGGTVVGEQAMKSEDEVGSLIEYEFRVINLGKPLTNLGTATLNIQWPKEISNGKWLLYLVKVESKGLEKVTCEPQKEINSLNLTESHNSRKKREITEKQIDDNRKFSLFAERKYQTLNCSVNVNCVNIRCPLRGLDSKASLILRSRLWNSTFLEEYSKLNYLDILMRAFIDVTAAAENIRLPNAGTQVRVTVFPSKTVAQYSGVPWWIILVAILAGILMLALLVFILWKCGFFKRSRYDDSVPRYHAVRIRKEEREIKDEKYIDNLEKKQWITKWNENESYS
Sequence of human α6β1 integrin transiently expressed on Expi293F cells, wild type (P05556 21-798, chain 2 of 2): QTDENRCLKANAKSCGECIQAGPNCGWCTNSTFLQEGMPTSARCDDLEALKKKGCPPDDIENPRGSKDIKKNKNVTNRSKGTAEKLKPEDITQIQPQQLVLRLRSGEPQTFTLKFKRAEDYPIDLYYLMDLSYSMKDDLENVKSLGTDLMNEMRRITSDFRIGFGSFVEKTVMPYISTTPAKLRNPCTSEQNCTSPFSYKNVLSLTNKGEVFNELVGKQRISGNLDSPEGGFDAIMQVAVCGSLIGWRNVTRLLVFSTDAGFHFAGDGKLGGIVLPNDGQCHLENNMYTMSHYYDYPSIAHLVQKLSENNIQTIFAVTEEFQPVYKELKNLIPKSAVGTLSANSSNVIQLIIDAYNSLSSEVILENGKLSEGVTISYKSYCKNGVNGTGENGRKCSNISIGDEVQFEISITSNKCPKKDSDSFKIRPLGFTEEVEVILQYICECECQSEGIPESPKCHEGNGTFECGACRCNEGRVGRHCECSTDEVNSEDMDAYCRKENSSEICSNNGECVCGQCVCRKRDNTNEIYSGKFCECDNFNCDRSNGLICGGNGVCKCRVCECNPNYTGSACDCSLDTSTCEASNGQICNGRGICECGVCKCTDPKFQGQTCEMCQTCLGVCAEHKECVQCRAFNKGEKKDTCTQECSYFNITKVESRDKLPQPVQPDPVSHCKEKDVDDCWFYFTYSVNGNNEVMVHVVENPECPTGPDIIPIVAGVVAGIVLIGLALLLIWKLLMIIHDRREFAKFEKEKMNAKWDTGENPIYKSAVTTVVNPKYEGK
Sequence of α6β1 integrin on Expi293F cells, α6 R157A (chain, as listed by the source R157A, chain 1 of 2): as the sequence (chain, as listed by the source, chain 1 of 2) above, with R157A counted along it
Sequence of α6β1 integrin on Expi293F cells, α6 R157A (P05556 21-798, chain 2 of 2): as the sequence (P05556 21-798, chain 2 of 2) above
Sequence of α6β1 integrin on Expi293F cells, α6 D153A (chain, as listed by the source D153A, chain 1 of 2): as the sequence (chain, as listed by the source, chain 1 of 2) above, with D153A counted along it
Sequence of α6β1 integrin on Expi293F cells, α6 D153A (P05556 21-798, chain 2 of 2): as the sequence (P05556 21-798, chain 2 of 2) above
Sequence of α6β1 integrin on Expi293F cells, α6 D205A (chain, as listed by the source D205A, chain 1 of 2): as the sequence (chain, as listed by the source, chain 1 of 2) above, with D205A counted along it
Sequence of α6β1 integrin on Expi293F cells, α6 D205A (P05556 21-798, chain 2 of 2): as the sequence (P05556 21-798, chain 2 of 2) above
Sequence of α6β1 integrin on Expi293F cells, α6 E221A (chain, as listed by the source E221A, chain 1 of 2): as the sequence (chain, as listed by the source, chain 1 of 2) above, with E221A counted along it
Sequence of α6β1 integrin on Expi293F cells, α6 E221A (P05556 21-798, chain 2 of 2): as the sequence (P05556 21-798, chain 2 of 2) above
Sequence of α6β1 integrin on Expi293F cells, α6 E219A (chain, as listed by the source E219A, chain 1 of 2): as the sequence (chain, as listed by the source, chain 1 of 2) above, with E219A counted along it
Sequence of α6β1 integrin on Expi293F cells, α6 E219A (P05556 21-798, chain 2 of 2): as the sequence (P05556 21-798, chain 2 of 2) above

- Kd [1]: 32.5 nM
- Kd [2]: 134 nM
- Kd [3]: 45.2 nM
- Kd [4]: 28.8 nM
- Kd [5]: 60.1 nM
B1: trimeric fusion protein PA-sfGFP-tLM511 (complex)
chain 1: ENVERWQGQYEGLRGQDLGQAVLDAGHSVSTLEKTLPQLLAKLSILENRGVHNASLALSASIGRVRELIAQARGAASKVKVPMKFNGRSGVQLRTPRDLADLAAYTALKFYLQGPEPEPGQGTEDRFVMYMGSRQATGDYMGVSLRDKKVHWVYQLGEAGPAVLSIDEDIGEQFAAVSLDRTLQFGHMSVTVERQMIQETKGDTVAPGAEGLLNLRPDDFVFYVGGYPSTFTPPPLLRFPGYRGCIEMDTLNEEVVSLYNFERTFQLDTAVDRPCARSKSTGDPWLTDGSYLDGTGFARISFDSQISTTKRFEQELRLVSYSGVLFFLKQQSQFLCLAVQEGSLVLLYDFGAGLKKAVPLQPPPPLTSASKAIQVFLLGGSRKRVLVRVERATVYSVEQDNDLELADAYYLGGVPPDQLPPSLRRLFPTGGSVRGCVKGIKALGKYVDLKRLNTTGVSAGCTADLLVGRAMTFHGHGFLRLALSNVAPLTGNVYSGFGFHSAQDSALLYYRASPDGLCQVSLQQGRVSLQLLRTEVKTQAGFADGAPHYVAFYSNATGVWLYVDDQLQQMKPHRGPPPELQPQPEGPPRLLLGGLPESGTIYNFSGCISNVFVQRLLGPQRVFDLQQNLGSVNVSTGCAPALQAQTPGLGPRGLQATARKASRRSRQPARHPA
chain 2: not shown
chain 3: DTVDLNKLNEIEGTLNKAKDEMKVSDLDRKVSDLENEAKKQEAAIMDYNRDIEEIMKDIRNLEDIRKTLPSGCFNTPSIEKP
modifications: Mn2+; A cytoplasmic form assumed

- Kd [6]: 12.5 nM
B2: trimeric fusion protein PA-sfGFP-tLM511 (complex)
chain 1: ENVERWQGQYEGLRGQDLGQAVLDAGHSVSTLEKTLPQLLAKLSILENRGVHNASLALSASIGRVRELIAQARGAASKVKVPMKFNGRSGVQLRTPRDLADLAAYTALKFYLQGPEPEPGQGTEDRFVMYMGSRQATGDYMGVSLRDKKVHWVYQLGEAGPAVLSIDEDIGEQFAAVSLDRTLQFGHMSVTVERQMIQETKGDTVAPGAEGLLNLRPDDFVFYVGGYPSTFTPPPLLRFPGYRGCIEMDTLNEEVVSLYNFERTFQLDTAVDRPCARSKSTGDPWLTDGSYLDGTGFARISFDSQISTTKRFEQELRLVSYSGVLFFLKQQSQFLCLAVQEGSLVLLYDFGAGLKKAVPLQPPPPLTSASKAIQVFLLGGSRKRVLVRVERATVYSVEQDNDLELADAYYLGGVPPDQLPPSLRRLFPTGGSVRGCVKGIKALGKYVDLKRLNTTGVSAGCTADLLVGRAMTFHGHGFLRLALSNVAPLTGNVYSGFGFHSAQDSALLYYRASPDGLCQVSLQQGRVSLQLLRTEVKTQAGFADGAPHYVAFYSNATGVWLYVDDQLQQMKPHRGPPPELQPQPEGPPRLLLGGLPESGTIYNFSGCISNVFVQRLLGPQRVFDLQQNLGSVNVSTGCAPALQAQTPGLGPRGLQATARKASRRSRQPARHPA
chain 2: not shown
chain 3: DTVDLNKLNEIEGTLNKAKDEMKVSDLDRKVSDLENEAKKQEAAIMDYNRDIEEIMKDIRNLEDIRKTLPSGCFNTPSIEKP
modifications: assayed with 0.5 mM Mn2+; X1 variant without the 39-residue X2 insert (P23229 displayed = X1X2A; mature 988 = 1050 gives offset 62 after X2); A/B cytoplasmic form not given, A taken; alpha6 may be furin-cleaved; signal peptides removed

- Kd [7]: 127 nM
B3: trimeric fusion protein PA-sfGFP-tLM511 (complex)
chain 1: ENVERWQGQYEGLRGQDLGQAVLDAGHSVSTLEKTLPQLLAKLSILENRGVHNASLALSASIGRVRELIAQARGAASKVKVPMKFNGRSGVQLRTPRDLADLAAYTALKFYLQGPEPEPGQGTEDRFVMYMGSRQATGDYMGVSLRDKKVHWVYQLGEAGPAVLSIDEDIGEQFAAVSLDRTLQFGHMSVTVERQMIQETKGDTVAPGAEGLLNLRPDDFVFYVGGYPSTFTPPPLLRFPGYRGCIEMDTLNEEVVSLYNFERTFQLDTAVDRPCARSKSTGDPWLTDGSYLDGTGFARISFDSQISTTKRFEQELRLVSYSGVLFFLKQQSQFLCLAVQEGSLVLLYDFGAGLKKAVPLQPPPPLTSASKAIQVFLLGGSRKRVLVRVERATVYSVEQDNDLELADAYYLGGVPPDQLPPSLRRLFPTGGSVRGCVKGIKALGKYVDLKRLNTTGVSAGCTADLLVGRAMTFHGHGFLRLALSNVAPLTGNVYSGFGFHSAQDSALLYYRASPDGLCQVSLQQGRVSLQLLRTEVKTQAGFADGAPHYVAFYSNATGVWLYVDDQLQQMKPHRGPPPELQPQPEGPPRLLLGGLPESGTIYNFSGCISNVFVQRLLGPQRVFDLQQNLGSVNVSTGCAPALQAQTPGLGPRGLQATARKASRRSRQPARHPA
chain 2: not shown
chain 3: DTVDLNKLNEIEGTLNKAKDEMKVSDLDRKVSDLENEAKKQEAAIMDYNRDIEEIMKDIRNLEDIRKTLPSGCFNTPSIEKP
